B1: PEG-Asparaginase: E. coli-derived peg-conjugated ASNase, used in the in vivo studies (protein, UniProt P00805 23-348, looked up)
L-asparaginase 2: LPNITILATGGTIAGGGDSATKSNYTVGKVGVENLVNAVPQLKDIANVKGEQVVNIGSQDMNDNVWLTLAKKINTDCDKTDGFVITHGTDTMEETAYFLDLTVKCDKPVVMVGAMRPSTSMSADGPFNLYNAVVTAADKASANRGVLVVMNDTVLDGRDVTKTNTTDVATFKSVNYGPLGYIHNGKIDYQRTPARKHTSDTPFDVSKLNELPKVGIVYNYANASDLPAKALVDAGYDGIVSAGVGNGNLYKSVFDTLATAAKTGTAVVRSSRVPTGATTQDAEVDDAKYGFVASGTLNPQKARVLLQLALTQTKDPQQIQQIFNQY
modifications: PEG conjugate (pegaspargase)
B2: …®: recombinantly produced E. coli ASNase, NCBI Ref Seq WP_000394140.1, ATC Code L01XX02 (protein, UniProt P00805 23-348, looked up)
L-asparaginase 2: B1 L-asparaginase 2

Experiments:
[1] = tested on: Human Acute Lymphoblastic Leukemia blasts in NSG mice; conditions: for bodyweight: NSG mice, ibrutinib 25 mg/kg oral daily 9 days, ONCASPAR 300 IU/kg IV days 1, 4, 7
Procedure: Procedure. The experimental design is schematized in FIG. 7A. Briefly, thirty-two (32) NOD.Cg-Prkdcscid I2rgtm1Wjl/SzJ (“NSG”) mice were injected intrafemorally with 500,000 leukemic blasts (2 injections/mouse) (Human Acute Lymphoblastic Leukemia). […] During and after treatment, mice were weighed weekly, and their welfare was evaluated daily. Blood samples were taken weekly for assessment of the leukemia burden. Termination was predefined with a leukemia burden reaching 50% leukemic blasts in peripheral blood as measured by flow cytometry or euthanasia because of overt signs of discomfort due to disease.
The primary outcome of this experiment was event-free survival, where event was defined as […]. Differences in event-free survival were analyzed using a Kaplan-Meier plot and significance was tested using the log-rank test.

[2] = tested on: HBP-ALL cells; test: T-ALL cell line viability and cell death by amine exposure; assay type: cell-based, human; conditions: 3 or 7 days
[3] = tested on: LOUCY cells; test: as above; assay type: cell-based, human; conditions: 3 or 7 days
[4] = tested on: 30 cell lines covering a variety of cancer cell types; test: ApoTox-Glo Triplex Assay (viability, cytotoxicity, apoptosis), 3-4 days, panel; assay type: cell-based; conditions: in still other cases
Procedure: Two incubation times were tested. […] Ibrutinib was the AADAS as detailed above.
Cell culture conditions. Adherent tumor cells were grown as monolayer at 37° C. in a humidified atmosphere (5% CO2, 95% air). […] The cells were counted and their viability assessed by 0.25% trypan blue exclusion assay.
Cell plating for 3 to 4 day incubation.
Each compound was tested alone at 6 doses.
Experiments were performed in duplicate.
Two protocols of incubation were performed: overnight and over 3/4 days as indicated.
The assay was performed as recommended by the manufacturer. […] The assay was performed as recommended by the manufacturer. […] Apoptosis was measured in luminescence.

Molecule | bodyweight [1] | mice that reached the termination point (>50% leukemic blasts) after 10 weeks ([1]; weeks after transplantation) | leukemia development ([1]; human leukemic blasts in blood by flow cytometry) | sensitivity, cell death by amine exposure [2] | sensitivity, cell death by amine exposure [3] | resistance of the cells [4]
C=CC(=O)N1CCC[C@@H](n2nc(-c3ccc(Oc4ccccc4)cc3)c3c(N)ncnc32)C1 [ibrutinib, reference compound] | mild and transient drop in bodyweight | 4/7 |  |  |  | 
B1 | strong but transient weight loss |  | stronger delay in leukemia development |  |  | 
B2 |  |  |  | extremely sensitive | extremely sensitive | somewhat resistant

From patent publication US20220362357A1, “Synergistic Combinations of Amino Acid Depletion Agent Sensitizers (AADAS) and Amino Acid Depletion Agents (AADA), and Therapeutic Methods of Use Thereof” (STICHTING RADBOUD UNIVERSITAIR MEDISCH CENTRUM, priority 2018, published 2022)
